The source of these data is the RNAGym collection of RNA variant scans (doi:10.1093/molbev/msab373).

B1: Azoarcus group I ribozyme (parent)
chain: GUGCCUUGCGCCGGGAAACCACGCAAGGGAUGGUGUCAAAUUCGGCGAAACCUAAGCGCCCGCCCGGGCGUAUGGCAACGCCGAGCCAAGCUUCGGCGCCUGCGCCGAUGAAGGUGUAGAGACUAGACGGCACCCACCUAAGGCAAACGCUAUGGUGAAGGCAUAGUCCAGGGAGUGGCGAAAGUCACACAAACCGG

The variants in this data set derive from B1. Kind of data set: reverse-splicing fitness (ratio to wild type); higher = more active; in vitro selection; Mg2+ level not given. In short, it runs like this: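 An in vitro group I ribozyme library with randomized positions was T7-transcribed and gel-purified. In triplicate, 10 pmol RNA in EPPS pH 7.5 was reacted with 50 pmoles of a 30-nt RNA substrate for 1 h at 37 °C across several added MgCl2 levels (1–48 mM), then stopped with EDTA. Products were reverse transcribed from a substrate-complementary primer, PCR-amplified and sequenced (HiSeq 4000). Fitness is a variant's read proportion after selection over that before, normalised to wild type.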
For the variant C82A A120G C150G U176C, the reverse-splicing fitness came to 0.00829. On to C82A A111G A120G A145G U176A, for which the reverse-splicing fitness was 0.0128. As for C169U U176A, the reverse-splicing fitness was determined as 0.114.

As for C82U A111C A120G C150G C169A, the reverse-splicing fitness stood at 0.00813. Next, C82G A111U A120G A145U C150U U176G: 0.00663. Regarding C82A A111C A120G C150A C169U U176G, the reverse-splicing fitness was 0.00682. C82A A111C A145U C169A U176A: the reverse-splicing fitness worked out at 0.0138. In the case of C82G A111C C169U U176A, the reverse-splicing fitness is 0.0194. Next, A111C A120G A145U U176A: 0.0392. Regarding C82G A111G C150A C169U, the reverse-splicing fitness was found to be 0.0115.

As for C82U A111G A145U C150A C169G U176G, the reverse-splicing fitness came to 0.00518. Next, C82A A111U A145U C150A C169A U176A: 0.0158; C82G A111U A120C A145C C150G: 0.0104; A120C A145G C150U C169U U176G: 0.0092. As for C82U A111G A120U A145G C169G U176G, the figure is 0.00169; as for C82G A111C A120C C169G U176A, 0.0161; as for C82U A111G A120U A145G C169A U176C, 0.00292.

For the variant C82U A111U A120C A145C C169U U176C, the reverse-splicing fitness turned out to be 0.0109. As for A120C A145G C150A C169A, the figure is 0.0153; as for C82G A111G A120G C150A C169A U176C, 0.0216. As for A111G A120G A145U C169G U176C, the figure is 0.106; as for A120C C150U C169G U176C, 0.0142. Next, C82G A111C A145U: 0.283; C82A A111C C150U: 0.113; C82U A120U A145G C150A U176C: 0.0141.

On to A111C A120U A145C C150A U176C, for which the reverse-splicing fitness came to 0.0101. As for C82U A111G A120G C169A U176C, the figure is 0.023; as for C82G A111C A120G A145G C150G U176G, 0.00597; as for A111C A120U A145U C169A U176G, 0.00217.

Consider C82A A111C A120U A145C C150A C169U U176C, for which the reverse-splicing fitness amounted to 0.00283.

C82G A120U A145C C150G C169A U176C: the reverse-splicing fitness came to 0.00176. Turning to C82G A111U A120G A145C C150G C169U, the reverse-splicing fitness was found to be 0.0084. On to C82A A111C A120U C169A U176C, for which the reverse-splicing fitness was 0.0037. C82G A111C A120G A145U C169A U176A: the reverse-splicing fitness was 0.0115. In the case of C82G A120U A145U C169G U176A, the reverse-splicing fitness worked out at 0.00234. Next, A111U A120G A145G C150A U176C: 0.0274; C82G A111C A120G A145G C150G C169A U176A: 0.0144.

Consider C82G A111U A120U C169G U176C, for which the reverse-splicing fitness turned out to be 0.00385. Next, C82G A145C C150G C169A U176C: 0.00634. As for C82U A111U A120C A145U C150A C169G U176A, the figure is 0.0124; as for C82A A120G C150A C169U U176G, 0.00815. As for C82A A111U A120U C150U C169U U176G, the figure is 0.00262; as for C82A A111C C150U C169U, 0.0128; as for C82A A120G C169G U176A, 0.0203. C150U C169A: the reverse-splicing fitness was 0.0973. As for C150U C169U, the figure is 0.247. As to A111G A145G C150A C169U, the reverse-splicing fitness is 0.0371. As for C82A A111G A120C C150A, the figure is 0.0162; as for C82G A111G A120G A145U C150G C169A, 0.01. With C82G A120U A145G C150G U176A, the reverse-splicing fitness amounted to 0.00899.

For A111G A120U A145C C169U U176A, the reverse-splicing fitness came to 0.0207. C82A A120G A145U C150G C169G: the reverse-splicing fitness is 0.00902. With C82A A120C A145G C150U C169U U176G, the reverse-splicing fitness came out at 0.00621. In the case of C82U A111G A120C A145G C150U U176C, the reverse-splicing fitness came to 0.0274. Next, A111U A145U C150G: 0.41. Regarding C82G A111G A120U A145U C150G U176G, the reverse-splicing fitness was found to be 0.00264.

For the variant C82A A111U A120G C150A C169U U176C, the reverse-splicing fitness amounted to 0.02. C82A A111U A120G C150A C169U U176A: the reverse-splicing fitness was found to be 0.021. As to A120G C150U C169A U176A, the reverse-splicing fitness amounted to 0.0776. Next, C82G A120U A145C C150U C169A: 0.00185; C82A A111U A120C A145G C150A C169G: 0.00972. Next, C82G A120C A145U C150G U176C: 0.0164; C82A A111U A145C C150U U176G: 0.0107; C82G A120C A145U C169U U176A: 0.0158. Take C82G A111U A120C A145C C150G C169U U176G: the reverse-splicing fitness was determined as 0.00524.

In the case of C82G A120G A145U C150G C169U U176C, the reverse-splicing fitness was determined as 0.0129. Consider A111U C150G C169A U176A, for which the reverse-splicing fitness was found to be 0.0102. For C82G A111C A120G A145C C150G C169A, the reverse-splicing fitness came to 0.0084. As for C82A A145U C169U, the figure is 0.0136; as for C82G A120C A145C C150A, 0.0129; as for A111G A145C C169U U176C, 0.0591.

With A111G A145G C150U U176C, the reverse-splicing fitness was 0.713.

Consider C82A A111C C150A C169A U176C, for which the reverse-splicing fitness stood at 0.0237. As for C82G A111C A120G A145G C150G C169G U176G, the figure is 0.00591; as for C82A A111G C169U U176G, 0.00547; as for C82G A120U A145G C150U C169U U176C, 0.00469. Take C82A A111G A120C C150U C169U U176G: the reverse-splicing fitness was determined as 0.00647. Next, C82A A111G A120C C169G U176A: 0.0206. As for C82A A120U C150A C169G U176C, the reverse-splicing fitness was 0.0032. Consider C82G A111C A120C A145G C169A U176G, for which the reverse-splicing fitness is 0.00796. In the case of C82U A111C A145C C150A U176C, the reverse-splicing fitness was 0.0145. On to C82G A120C C169A U176A, for which the reverse-splicing fitness turned out to be 0.0185. As for A145U C150U C169A U176C, the figure is 0.04. Next, C82U A111U A120C A145U C169U: 0.0107.
